The results in this text go back to US20080207526A1.

Experiment [1] addresses recombinant water-soluble HLA-DR1 (DRA/DRB1*0101) (human).
Experiment [2] has as its target recombinant water-soluble HLA-DR4 (DRA/DRB1*0401) (human).
Experiment [3] has as its target recombinant water-soluble HLA-DR1 (DRA/DRB1*0101) (human). This is another data set of the same source.
Experiment [4] addresses recombinant water-soluble HLA-DR2 (DRB1*1501) (human).
Experiment [5] has as its target recombinant water-soluble HLA-DR4 (DRA/DRB1*0401) (human). This is another data set of the same source.
Experiment [6] deals with T1, recombinant water-soluble HLA-DR4 (DRA/DRB1*0401) (human).
T1 chain 1: not shown
T1 chain 2: not shown

Experiment [7] has as its target T2, HLA-DR4 on antigen presenting cells (L cells transfected with DR4; Priess cells DRB1*0401/DRB4*0101) (human).
T2 chain 1: not shown
T2 chain 2: not shown
In words: cell-based or functional assay.

For experiment [8], the target named is T3, recombinant water-soluble HLA-DR1 (DRA/DRB1*0101) (human).
T3 chain 1: not shown
T3 chain 2: not shown

Experiment [9] addresses T1, recombinant water-soluble HLA-DR4 ….
The target of experiment [10] is T3, recombinant water-soluble HLA-DR1 ….

Like-named read-outs stand apart in the source and are kept apart here. Bounds are passed on as bounds.

Regarding Copolymer 1, poly(Y,E,A,K), the affinity determined by competition with biotinylated competitor in experiment [1] came out at 8 µM; in experiment [2], 2.5 µM. Also, the percent of added YEAK in the bound fraction was over 95% in experiment [3], 80% in experiment [4] and over 95% in experiment [5].
With EAAYAAAAAAKAAAA (modifications not checked) [peptide SEQ ID NO: 16], the affinity determined by competition with biotinylated competitor in experiment [6] was 5 µM. In experiment [7], this molecule registered an inhibition of the DR4-restricted 3838 T cell clone (IL-2 secretion) of over 80%.
The matching figures for EKKYAAAAAAKAAAA (modifications not checked) [peptide SEQ ID NO: 17]: 1.8 µM and over 80%.
Regarding AKYAEAAAAAAAAAA (modifications not checked) [peptide SEQ ID NO: 36], the affinity determined by competition with biotinylated competitor in experiment [6] came out at 3 µM.
As for AAEYKAAAAAAAAAA (modifications not checked) [peptide SEQ ID NO: 26], the affinity determined by competition with biotinylated competitor in [6] was 1.8 µM.
With AEYAKAAAAAAAAAA (modifications not checked) [peptide SEQ ID NO: 32], the affinity determined by competition with biotinylated competitor in experiment [6] is 3 µM.
For the molecule AAKYEAAAAAKAAAA (modifications not checked) [peptide SEQ ID NO: 14], in [6], the affinity determined by competition with biotinylated competitor amounted to 4 µM.
As to AEKAYAAAAAAAAAA (modifications not checked) [peptide SEQ ID NO: 33], in [6] (remark: other sources report otherwise), the affinity determined by competition with biotinylated competitor was under 1 µM. Moreover, in [7], the inhibition of the DR4-restricted 3838 T cell clone (IL-2 secretion) was over 80%.
Regarding AEKYAAAAAAKAAAA (modifications not checked) [peptide SEQ ID NO: 6], in experiment [7], the inhibition of the DR4-restricted 3838 T cell clone (IL-2 secretion) is over 80%.
Turning to AAAYAAAAAAKAAAA (modifications not checked) [peptide SEQ ID NO: 5], the affinity determined by competition with biotinylated competitor in [6] was 7 µM.
Consider KEAYAAAAAAKAAAA (modifications not checked) [peptide SEQ ID NO: 10], for which the affinity determined by competition with biotinylated competitor in experiment [6] turned out to be 4.5 µM.
Regarding AKEYAAAAAAKAAAA (modifications not checked) [peptide SEQ ID NO: 7], the affinity determined by competition with biotinylated competitor in [6] came out at 4.5 µM; in experiment [8], 19 µM.
Consider EKAYAAAAAAKAAAA (modifications not checked) [peptide SEQ ID NO: 13], for which the affinity determined by competition with biotinylated competitor in experiment [6] stood at 3.3 µM.
In [7], AAKYEAAAAAAAAAA (modifications not checked) [peptide SEQ ID NO: 28] gave an inhibition of the DR4-restricted 3838 T cell clone (IL-2 secretion) of over 80%.
AKKYEAAAAAAAAAA (modifications not checked) [peptide SEQ ID NO: 21]: the affinity determined by competition with biotinylated competitor in experiment [6] is 2.2 µM.
Consider AAKYAEAAAAKAAAA (modifications not checked) [peptide SEQ ID NO: 15], for which the affinity determined by competition with biotinylated competitor in experiment [6] was 1.8 µM; in experiment [9], under 1 µM; in experiment [8], 42 µM; in [10], 16 µM.
As for EAKYAAAAAAKAAAA (modifications not checked) [peptide SEQ ID NO: 18], the values for the affinity determined by competition with biotinylated competitor in experiment [6], in experiment [9] and in [8] were 4.4 µM, 3 µM and 33 µM, respectively.
Regarding AYKAEAAAAAAAAAA (modifications not checked) [peptide SEQ ID NO: 35], the affinity determined by competition with biotinylated competitor in experiment [6] stood at 1.3 µM.
For AEEYAAAAAAKAAAA (modifications not checked) [peptide SEQ ID NO: 11], in experiment [7], the inhibition of the DR4-restricted 3838 T cell clone (IL-2 secretion) is over 80%.
Regarding AAEYAAAAAAKAAAA (modifications not checked) [peptide SEQ ID NO: 12], the results for the affinity determined by competition with biotinylated competitor in experiment [6] and in [8] were 3.2 µM and 47 µM, respectively.
